Experimental data reported in publication PMC12700780, “The PavDREB1E–PavD8–PavHY5 module integrates light and gibberellin signals to regulate sweet cherry anthocyanin biosynthesis”.

Assays:
PavDREB1E-GST = PavDREB1E-GST (Prunus avium, UniProt A0A6P5RM44 1-238); experiment: EMSA; unlabeled probe competes; Chemiluminescent EMSA kit (Beyotime), manufacturer's instructions; 2 ug PavDREB1E-GST in PavD8 assays; buffer, salt, pH and temperature not stated; settings: protein: recombinant; tags: GST; label: biotin; only one strand given
PavDREB1E-GST;PavD8-GST = PavDREB1E-GST;PavD8-GST (Prunus avium;Prunus avium, UniProt A0A6P5RM44;A0A6P5SVV0 1-238;1-537, |); experiment: EMSA; 2 ug PavDREB1E-GST with 2, 4, 6 ug PavD8-GST; PavD8 enhances the shifted band; Chemiluminescent EMSA kit (Beyotime), manufacturer's instructions; 2 ug PavDREB1E-GST in PavD8 assays; buffer, salt, pH and temperature not stated; settings: protein: recombinant;recombinant; tags: GST;GST; label: biotin; only one strand given
Chain of PavDREB1E-GST;PavD8-GST (chain, as listed by the source |, chain 1 of 2): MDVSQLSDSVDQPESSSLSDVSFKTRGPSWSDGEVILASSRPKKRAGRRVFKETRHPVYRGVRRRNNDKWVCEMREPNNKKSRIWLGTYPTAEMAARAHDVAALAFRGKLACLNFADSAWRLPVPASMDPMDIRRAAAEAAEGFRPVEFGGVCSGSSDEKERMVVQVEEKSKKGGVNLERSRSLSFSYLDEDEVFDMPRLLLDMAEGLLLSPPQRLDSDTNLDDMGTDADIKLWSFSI
Chain of PavDREB1E-GST;PavD8-GST (chain, as listed by the source |, chain 2 of 2): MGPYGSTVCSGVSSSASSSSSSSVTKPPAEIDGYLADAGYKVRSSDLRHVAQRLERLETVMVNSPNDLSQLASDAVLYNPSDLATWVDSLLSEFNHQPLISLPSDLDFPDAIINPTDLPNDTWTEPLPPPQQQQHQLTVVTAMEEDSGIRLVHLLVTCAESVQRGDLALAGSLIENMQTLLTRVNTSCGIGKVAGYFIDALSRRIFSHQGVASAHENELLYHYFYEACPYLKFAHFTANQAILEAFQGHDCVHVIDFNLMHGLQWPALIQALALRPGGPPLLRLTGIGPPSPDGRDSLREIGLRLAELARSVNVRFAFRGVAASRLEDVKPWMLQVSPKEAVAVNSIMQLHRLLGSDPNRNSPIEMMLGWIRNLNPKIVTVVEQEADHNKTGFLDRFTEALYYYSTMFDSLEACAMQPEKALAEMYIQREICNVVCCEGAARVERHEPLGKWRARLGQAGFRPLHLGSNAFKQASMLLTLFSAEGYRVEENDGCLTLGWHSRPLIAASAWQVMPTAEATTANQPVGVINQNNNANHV

Chain of PavDREB1E-GST (A0A6P5RM44 entry or part of it): as the sequence (chain, as listed by the source |, chain 1 of 2) above

Row | Binder | binding result (PavDREB1E-GST) | binding result (PavDREB1E-GST;PavD8-GST)
1 | ProPavDFR probe (dsDNA) DNA 1: GTAATTACCACCGACCAAAAAAGAACATTG DNA 2: CAATGTTCTTTTTTGGTCGGTGGTAATTAC | binds | binds
2 | ProPavUFGT probe (dsDNA) DNA 1: ACTTCACGAGCTCATCGACTAATAAGAAAG DNA 2: CTTTCTTATTAGTCGATGAGCTCGTGAAGT | binds | binds
3 | ProPavCHS probe (dsDNA) DNA 1: GGGAAAGAAATTAAGTCGGTAGATGATATT DNA 2: AATATCATCTACCGACTTAATTTCTTTCCC | binds | binds
